The values below come from PMC7022206.

Experiment [1] addresses NLS-conjugated polymersome nanocarriers (bipartite nucleoplasmin NLS peptide on PMOXA-PDMS-PMOXA polymersomes). As to the kind of experiment: dual-color fluorescence lifetime cross-correlation spectroscopy.
For experiment [2], the target named is Cysteine-tagged FG domain of human Nup153 (human). As to the kind of experiment: SPR. (In general: In SPR one partner is held on a chip, and binding of the other changes the refractive index at the surface.)

Consider “Kapα•Kapβ1 (from UniProt P52292;Q14974) (complex)”, for which the Kd is under 0.4 nM in experiment [1] and 24.8 nM in experiment [2].

For orientation: Kd means the constant that tells how readily two partners part at equilibrium.
